Test [1] addresses C1q (human) (UniProt P02745). The test is described as follows: FACS, C1q titrated on Daudi cells opsonized with the mix; Exp. 6. On the technique in general: Flow cytometry measures light scatter and fluorescence of single cells or particles in a stream.
For test [2], the target named is C1q (human) (UniProt P02745). In words: cell-based or functional assay.
Test [3] has as its target C1q (human) (UniProt P02745). The test is described as follows: C1q binding ELISA: antibody coated in a dilution series (0.58-10 µg/mL), 3% pooled human serum as source of C1q, rabbit anti-human C1q and swine anti-rabbit IgG-HRP, ABTS, OD 405 nm. For orientation: ELISA stands for enzyme-linked immunosorbent assay.
Test [4] deals with C1q (human) (UniProt P02745). The test is described as follows: FACS, C1q titrated on mAb-opsonized Daudi cells; Exp. 11.
The target in test [5] is C1q (human) (UniProt P02745). The test is described as follows: FACS, C1q titrated on mAb-opsonized Daudi cells; Exp. 1.
Test [6] addresses C1q (human) (UniProt P02745). The test is described as follows: C1q ELISA, coated antibody series + 3% human serum; mean.
Test [7] concerns the target C1q (human) (UniProt P02745). The test is described as follows: FACS, C1q titrated on mAb-opsonized Raji cells; Exp. 1.
Test [8] has as its target C1q (human) (UniProt P02745). The test is described as follows: FACS, C1q titrated on mAb-opsonized Daudi cells; Exp. 10.
For test [9], the target named is C1q (human) (UniProt P02745). The test is described as follows: FACS, C1q titrated on mAb-opsonized Raji cells; Exp. 3.

Chain of C1q (human) (P02745 23-245 limits assumed, chain 1 of 3): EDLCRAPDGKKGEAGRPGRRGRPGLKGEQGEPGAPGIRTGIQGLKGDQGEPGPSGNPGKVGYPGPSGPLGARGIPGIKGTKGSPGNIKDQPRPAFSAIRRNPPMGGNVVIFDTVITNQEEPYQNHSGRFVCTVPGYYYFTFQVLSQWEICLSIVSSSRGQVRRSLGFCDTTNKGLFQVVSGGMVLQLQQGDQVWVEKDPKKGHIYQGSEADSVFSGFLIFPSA
Chain of C1q (human) (P02746 28-253 limits assumed, chain 2 of 3, further chain): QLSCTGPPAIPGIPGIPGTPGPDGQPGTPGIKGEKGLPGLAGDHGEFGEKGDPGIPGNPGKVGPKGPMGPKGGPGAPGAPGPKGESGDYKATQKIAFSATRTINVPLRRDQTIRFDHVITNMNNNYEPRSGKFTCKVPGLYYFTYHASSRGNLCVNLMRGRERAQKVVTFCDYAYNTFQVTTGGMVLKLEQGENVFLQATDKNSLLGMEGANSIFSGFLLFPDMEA
Chain of C1q (human) (P02747 29-245 limits assumed, chain 3 of 3, further chain): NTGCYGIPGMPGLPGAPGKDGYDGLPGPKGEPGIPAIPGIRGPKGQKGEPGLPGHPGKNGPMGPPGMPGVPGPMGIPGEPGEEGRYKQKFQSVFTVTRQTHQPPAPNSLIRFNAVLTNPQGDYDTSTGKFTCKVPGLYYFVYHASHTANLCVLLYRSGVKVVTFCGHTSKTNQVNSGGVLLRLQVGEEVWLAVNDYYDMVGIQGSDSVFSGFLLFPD
Chain of IgG1-7D8-E345R (antibody) (heavy, form in doubt): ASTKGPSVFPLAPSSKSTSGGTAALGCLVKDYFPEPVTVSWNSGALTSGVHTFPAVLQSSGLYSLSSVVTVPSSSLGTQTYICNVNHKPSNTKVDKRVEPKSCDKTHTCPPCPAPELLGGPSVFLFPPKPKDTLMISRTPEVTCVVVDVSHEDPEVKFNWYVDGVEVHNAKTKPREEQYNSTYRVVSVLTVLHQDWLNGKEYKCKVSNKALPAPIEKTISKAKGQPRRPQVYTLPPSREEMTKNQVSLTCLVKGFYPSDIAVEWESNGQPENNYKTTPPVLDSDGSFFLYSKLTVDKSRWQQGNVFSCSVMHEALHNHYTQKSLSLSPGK

For orientation: Kd means the concentration at which binding is half-saturated. Low readings indicate tighter binding, high ones weaker binding. In test [1], 7D8-K439E + 7D8-S440K mix had a Kd of 3.6 nM. Moreover, the CH50 for C1q efficacy in a CDC assay on Raji cells in test [2] worked out at 1.33 µg/mL.

Take IgG1-7D8-E345R (antibody): the CH50 for C1q efficacy in a CDC assay on Raji cells in test [2] was 0.03 µg/mL.

As to IgG1-7D8-E382R (antibody), the CH50 for C1q efficacy in a CDC assay on Raji cells in test [2] was 0.77 µg/mL.

Substance IgG1-7D8-G385D (antibody) came in with a CH50 for C1q efficacy in a CDC assay on Raji cells in [2] of 22.5 µg/mL.

With IgG1-7D8-H310K (antibody), the CH50 for C1q efficacy in a CDC assay on Raji cells in test [2] is more than 30 µg/mL.

Regarding IgG1-7D8-H433A (antibody), the CH50 for C1q efficacy in a CDC assay on Raji cells in test [2] is more than 30 µg/mL.

The substance IgG1-7D8-H433D (antibody) came in with a CH50 for C1q efficacy in a CDC assay on Raji cells in test [2] of more than 30 µg/mL.

In [2], IgG1-7D8-H433R (antibody) displayed a CH50 for C1q efficacy in a CDC assay on Raji cells of 0.16 µg/mL.

IgG1-7D8-H435A (antibody) yielded a CH50 for C1q efficacy in a CDC assay on Raji cells in test [2] of 0.96 µg/mL.

The EC50 (read off the curve) is the concentration giving half of the maximal effect. In the case of IgG1-7D8-H435R (antibody), in [3], the EC50 (read off the curve) was 2 µg/mL. The substance also gave a CH50 for C1q efficacy in a CDC assay on Raji cells in test [2] of 0.24 µg/mL.

The substance IgG1-7D8-I253A (antibody) had a CH50 for C1q efficacy in a CDC assay on Raji cells in test [2] of 11.2 µg/mL.

IgG1-7D8-I253D (antibody): the CH50 for C1q efficacy in a CDC assay on Raji cells in [2] was more than 30 µg/mL.

As for IgG1-7D8-I253D/H433A (antibody), in test [2], the CH50 for C1q efficacy in a CDC assay on Raji cells was more than 30 µg/mL.

As for IgG1-7D8-I253Y (antibody), the CH50 for C1q efficacy in a CDC assay on Raji cells in [2] was determined as 16.1 µg/mL.

Take IgG1-7D8-K322A (antibody): in test [2], the CH50 for C1q efficacy in a CDC assay on Raji cells is more than 30 µg/mL and the EC50 calculated from the CDC assay on Daudi cells (antibody concentration resulting in 50% lysis) was more than 30 µg/mL.

IgG1-7D8-K439E (antibody) displayed a CH50 for C1q efficacy in a CDC assay on Raji cells in test [2] of more than 30 µg/mL.

Take IgG1-7D8-K439E/S440K (antibody): in test [2], the CH50 for C1q efficacy in a CDC assay on Raji cells was 0.09 µg/mL.

In turn, IgG1-7D8-N434A (antibody) came in with a CH50 for C1q efficacy in a CDC assay on Raji cells in test [2] of 21.2 µg/mL.

In test [2], IgG1-7D8-Q311A (antibody) came in with a CH50 for C1q efficacy in a CDC assay on Raji cells of 0.63 µg/mL.

IgG1-7D8-Q438D (antibody): in test [2], the CH50 for C1q efficacy in a CDC assay on Raji cells is more than 30 µg/mL.

For the substance IgG1-7D8-S440K (antibody), the CH50 for C1q efficacy in a CDC assay on Raji cells in [2] is more than 30 µg/mL.

As usually defined, the EC50 is the midpoint of the concentration-response curve. Regarding IgG1-7D8-WT (antibody), the Kd in test [4] was determined as 13.3 nM; in test [5], 7.7 nM; in [7], 4.8 nM; in test [8], 11.8 nM; in [9], 10.9 nM. In test [6], the EC50 is 2.05 µg/mL. This substance also displayed a CH50 for C1q efficacy in a CDC assay on Raji cells in test [2] of 0.49 µg/mL.

In test [2], IgG1-7D8-Y436D (antibody) showed a CH50 for C1q efficacy in a CDC assay on Raji cells of more than 30 µg/mL.

The record behind these values is patent US20140242075A1.
